Positions count from the first letter of the chain named.
B1: anti-ZIKV antibody 242-3 (antibody, V domains shown)
VH: QAQLEESGGDLVKPEGSLTLTCTASGFSFTDRHYMCWIRQAPGKGLEWIACVYPGSSGSTYYASWARGRFTISKTSSTTVTLRMTSLTAADTATYFCARSSYPDSSGYSYGMDLWGPGTLVTVSS
VL: DIVMTQTPASVEAAVGGTVTIKCQASQNINSNLAWYQQKPGQRPKFLMYLTSKLASGVPSRFRGSGSGTQFTLTISDLECADAATYYCQTYYDISNYGYAFGGGTEVVVK
notes: also called clone 242-3
B2: anti-ZIKV antibody 270-12 (antibody, V domains shown)
VH: B1 VH with I38V
VL: DIVMTQTPASVEAAVGGTVTIKCQASQDINSNLAWYQQKPGQRPKFLMYLTSKLASGVPSRFRGSGSGTQFTLTISDLECADAATYYCQTYYDISNYGYAFGGGTEVVVKG
notes: also called clone 270-12
B3: anti-ZIKV antibody 306-2 (antibody, V domains shown)
VH: QSLEESGGDLVKPGASLTLTCTASGFDFSDRYYMCWVRQAPGKGLEWIGCIYVGSGDTYYASWAKGRFTISRTSSTTVTLQMTRLTAADTATYFCARHPGTYFTLWGPGTLVTVSS
VL: DVVMTQTPSSVSAAVGGTVTINCQASQNIVNNLAWYQQRPGQPPKLLIYDTSTLASGVPSRFKGSGSGTEFTLTISDLECADAATYYCQTYYYYNKIINGFGGGTEVVVKG
B4: anti-ZIKV antibody 78-2 (antibody, V domains shown)
VH: QQQLVESGGGLVKPGASLTLNCKASGLDFSTNSYMCWVRQAPGKGLEWIACIYVGDSSEIYYASWAKGRFTISKTSSTTVTLQMTSLTAADTATYFCARDLPSFTAPYAGYLRLWGPGTLVTVSS
VL: QPVLTQPPSLSASLGTTARLTCTLRTGYNVGDYPLLWLQRVPGRPPRYLLTYHTEEFKHQGSGVHSRFSGSKDASENAGVLSISGLQPEDEANYYCYTVHATESSLHYVFGGGTQLTVTG
notes: also called clone 78-2
B5: anti-ZIKV antibody 11-3 (antibody, V domains shown)
VH: QEQLVESGGGLVQPEGSLTITCTGSGFSFSSRFYMCWVRQAPGKGLEWIACIYGGSSGSTYYASWAKGRFTISKTSSTTVTLQISSLTAADTATYFCARGGSTAAAGFNLWGPGTLLTVSS
VL: DVVMTQTPASVSATVGGTVTIKCQASEDIYNLLAWYQQKPGQPPKLLIYYASTLASGVPSRFKGSGSGTEFTLTISDLECADAATYYCQCNDYGGTYVPNAFGGGTEVVVKG
notes: also called clone 11-3

biological target: T1, ZIKV-VLP (Native Antigen Inc.) (Zika virus); test: BLI binning on ZIKV-VLP; 1st mAb (row): 289-3
T1 construct: also called Zika VLP; ZVLP

First: B1
Second: B2
The “response of 2nd mAb” value of the first is lower: 0.0219 for the first, 0.0261 for the second.

For B3, the “response of 2nd mAb” value was 0.023.

biological target: T1, ZIKV-VLP (Native Antigen Inc.); test: BLI binning on ZIKV-VLP; 1st mAb (row): 306-2

Going from B1 to B2, the “response of 2nd mAb” value falls from 0.0732 to 0.0432.

In the case of B3, the “response of 2nd mAb” value is reported as 0.0225.

biological target: T1, ZIKV-VLP (Native Antigen Inc.); test: BLI binning on ZIKV-VLP; 1st mAb: 260-2

Going from B4 to B5, the “response of 2nd mAb” value rises from 0.33 to 0.47.

First: B1
Second: B2
The “response of 2nd mAb” value of the first is higher: 0.06 for the first, 0 for the second.

In the case of B3, the “response of 2nd mAb” value is reported as 0.

biological target: T1, ZIKV-VLP (Native Antigen Inc.); test: BLI binning on ZIKV-VLP; 1st mAb: 102-1

First: B4
Second: B5
The “response of 2nd mAb” value of the first is lower: 0.32 for the first, 0.45 for the second.

First: B1
Second: B2
The “response of 2nd mAb” value of the first is higher: 0.1 for the first, 0.07 for the second.

With B3 the “response of 2nd mAb” value was 0.07.

biological target: T1, ZIKV-VLP (Native Antigen Inc.); test: BLI binning on ZIKV-VLP; 1st mAb: 4G2

Compared with B4, B5 is higher in “response of 2nd mAb” value: 0.52 for the first, 0.75 for the second.

Going from B1 to B2, the “response of 2nd mAb” value falls from 0.93 to 0.91.

With B3 the “response of 2nd mAb” value was 0.64.

biological target: T1, ZIKV-VLP (Native Antigen Inc.); test: indirect ELISA, purified antibody serially diluted from 10 µg/ml

Going from B4 to B5, the EC50 falls from 0.0319 µg/mL to 0.00657 µg/mL (4.9-fold).

Work on B2 yielded an EC50 of 0.0128 µg/mL.

biological target: T1, ZIKV-VLP (Native Antigen Inc.); test: ELISA, purified recombinant mAb

First: B1
Second: B3
The “ELISA OD” value of the first is lower: 3.07 OD for the first, 3.3 OD for the second.

biological target: T1, ZIKV-VLP (Native Antigen Inc.); test: BLI binning on ZIKV-VLP; 1st mAb: 329-2

Compared with B4, B5 is higher in “response of 2nd mAb” value: 0.33 for the first, 0.44 for the second.

First: B1
Second: B2
The “response of 2nd mAb” value of the first is lower: -0.01 for the first, 0 for the second.

For B3, the “response of 2nd mAb” value was -0.03.

biological target: T1, ZIKV-VLP (Native Antigen Inc.); test: BLI binning on ZIKV-VLP; 1st mAb: 242-3

First: B4
Second: B5
The “response of 2nd mAb” value of the first is lower: 0.33 for the first, 0.42 for the second.

Compared with B1, B2 is lower in “response of 2nd mAb” value: 0.08 for the first, 0.04 for the second.

With B3 the “response of 2nd mAb” value was 0.04.

biological target: T1, ZIKV-VLP (Native Antigen Inc.); test: BLI binning on ZIKV-VLP; 1st mAb: Ab2

Going from B4 to B5, the “response of 2nd mAb” value rises from 2.46 to 2.71.

First: B1
Second: B2
The “response of 2nd mAb” value of the first is higher: 7.67 for the first, 3.5 for the second.

With B3 the “response of 2nd mAb” value was 4.51.

biological target: T1, ZIKV-VLP (Native Antigen Inc.); test: BLI (Octet), supernatant IgG captured on Protein A biosensor, ZIKV-VLP 3.3 µg/mL in solution, 1:1 model

B4 and B5 cannot be ordered by koff: less than 1e-07 s⁻¹ for the first, less than 1e-07 s⁻¹ for the second.

B1 and B3 cannot be ordered by koff: less than 1e-07 s⁻¹ for the first, less than 1e-07 s⁻¹ for the second.

biological target: T1, ZIKV-VLP (Native Antigen Inc.); test: BLI binning on ZIKV-VLP; 1st mAb (row): C10

Going from B1 to B2, the “response of 2nd mAb” value falls from 0.0363 to 0.0344.

B3 was tested, and the “response of 2nd mAb” value was -0.0006.

biological target: T1, ZIKV-VLP (Native Antigen Inc.); test: BLI binning on ZIKV-VLP; 1st mAb: 181-4

Going from B4 to B5, the “response of 2nd mAb” value rises from 0.3 to 0.39.

First: B1
Second: B2
The “response of 2nd mAb” value of the first is higher: 0.02 for the first, 0.01 for the second.

In the case of B3, the “response of 2nd mAb” value is reported as -0.02.

biological target: T1, ZIKV-VLP (Native Antigen Inc.); test: BLI binning on ZIKV-VLP; 1st mAb: 289-3

Going from B4 to B5, the “response of 2nd mAb” value rises from 0.32 to 0.42.

First: B1
Second: B2
The “response of 2nd mAb” value of the first is higher: 0.04 for the first, 0.02 for the second.

With B3 the “response of 2nd mAb” value was 0.03.

biological target: T1, ZIKV-VLP (Native Antigen Inc.); test: BLI binning on ZIKV-VLP; 1st mAb: 270-12

First: B4
Second: B5
The “response of 2nd mAb” value of the first is lower: 0.28 for the first, 0.38 for the second.

Going from B1 to B2, the “response of 2nd mAb” value falls from 0.04 to 0.02.

For B3, the “response of 2nd mAb” value was -0.01.

biological target: T1, ZIKV-VLP (Native Antigen Inc.); test: BLI binning on ZIKV-VLP; 1st mAb: 306-2

Going from B4 to B5, the “response of 2nd mAb” value rises from 0.28 to 0.43.

First: B1
Second: B2
The “response of 2nd mAb” value of the first is lower: 0.08 for the first, 0.31 for the second.

With B3 the “response of 2nd mAb” value was 0.01.

biological target: T1, ZIKV-VLP (Native Antigen Inc.); test: BLI binning on ZIKV-VLP; 1st mAb: 78-2

First: B4
Second: B5
The “response of 2nd mAb” value of the first is lower: 0.06 for the first, 0.23 for the second.

Compared with B1, B2 is higher in “response of 2nd mAb” value: 0.18 for the first, 0.44 for the second.

B3 was tested, and the “response of 2nd mAb” value was 0.26.

biological target: T1, ZIKV-VLP (Native Antigen Inc.); test: BLI binning on ZIKV-VLP; 1st mAb (row): 102-1

Compared with B1, B2 is lower in “response of 2nd mAb” value: 0.0181 for the first, -0.004 for the second.

In the case of B3, the “response of 2nd mAb” value is reported as 0.0269.

biological target: T1, ZIKV-VLP (Native Antigen Inc.); test: ELISA, hybridoma supernatant (Abcam data)

Compared with B4, B5 is higher in OD: 2.67 OD for the first, 2.83 OD for the second.

Going from B1 to B2, the OD rises from 0.97 OD to 1.27 OD.

B3 was tested, and the OD was 1.15 OD.

biological target: T1, ZIKV-VLP (Native Antigen Inc.); test: BLI binning on ZIKV-VLP; 1st mAb: Ab1

Going from B4 to B5, the “response of 2nd mAb” value rises from 0.38 to 0.41.

First: B1
Second: B2
The “response of 2nd mAb” value of the first is lower: 0.25 for the first, 0.34 for the second.

For B3, the “response of 2nd mAb” value was 0.19.

biological target: T1, ZIKV-VLP (Native Antigen Inc.); test: indirect ELISA, subclone supernatant

Going from B1 to B3, the “VLP (OD) binding” value rises from 0.97 OD to 1.15 OD.

biological target: T1, ZIKV-VLP (Native Antigen Inc.); test: BLI binning on ZIKV-VLP; 1st mAb (row): 242-3

Compared with B1, B2 is lower in “response of 2nd mAb” value: 0.005 for the first, -0.0103 for the second.

With B3 the “response of 2nd mAb” value was 0.019.

biological target: T1, ZIKV-VLP (Native Antigen Inc.); test: BLI binning on ZIKV-VLP; 1st mAb (row): 270-12

First: B1
Second: B2
The “response of 2nd mAb” value of the first is higher: 0.0325 for the first, 0.0171 for the second.

In the case of B3, the “response of 2nd mAb” value is reported as 0.0125.

biological target: T1, ZIKV-VLP (Native Antigen Inc.); test: BLI binning on ZIKV-VLP; 1st mAb: C10

Compared with B4, B5 is lower in “response of 2nd mAb” value: 3.41 for the first, 3.14 for the second.

First: B1
Second: B2
The “response of 2nd mAb” value of the first is higher: 5.12 for the first, 4.27 for the second.

B3 was tested, and the “response of 2nd mAb” value was 4.54.

biological target: T1, ZIKV-VLP (Native Antigen Inc.); test: BLI binning on ZIKV-VLP; 1st mAb: 11-3

Going from B4 to B5, the “response of 2nd mAb” value falls from 0.42 to 0.06.

First: B1
Second: B2
The “response of 2nd mAb” value of the first is lower: 0.4 for the first, 0.47 for the second.

With B3 the “response of 2nd mAb” value was 0.34.

From US20220332800A1 (Takeda / Millennium, published 2022)
